Assay results published in patent publication US20170319711A1.

Columns and labels:
[1] = molecular target: Human 5T4 antigen on cells (human) (UniProt Q13641); experiment: flow cytometry, A431 cells
[2] = molecular target: Human 5T4 antigen on cells (human) (UniProt Q13641); experiment: flow cytometry, PC3mm2 cells
[3] = molecular target: Human 5T4 antigen on cells (human) (UniProt Q13641); experiment: flow cytometry, MDAMB468 cells

Measured: Mean Fluorescent Intensity

Chain of Human 5T4 antigen on cells (human) (Q13641 32-420 limits assumed): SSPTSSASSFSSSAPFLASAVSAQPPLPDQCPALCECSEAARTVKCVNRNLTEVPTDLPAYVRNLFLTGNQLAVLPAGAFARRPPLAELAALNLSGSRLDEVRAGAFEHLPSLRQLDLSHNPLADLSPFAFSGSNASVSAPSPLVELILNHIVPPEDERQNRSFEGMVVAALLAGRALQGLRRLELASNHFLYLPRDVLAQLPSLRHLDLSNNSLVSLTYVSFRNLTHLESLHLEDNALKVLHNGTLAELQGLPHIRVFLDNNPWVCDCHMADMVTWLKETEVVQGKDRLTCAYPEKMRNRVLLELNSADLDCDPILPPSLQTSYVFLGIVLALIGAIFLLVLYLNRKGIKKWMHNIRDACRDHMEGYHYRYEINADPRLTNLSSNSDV

IgG control (antibody)
< 100: all assays above
